The experiment has as its target Recombinant Cdk5/p25 complex (human Cdk5 and p25 with N-terminal GST-tags) (human, UniProt Q00535 1-292; Q15078 99-307). The experiment can be described thus: pull-down.

No end group written: not given here. *: point of attachment. Biotin = O=C1N[C@H]2[C@H](CS[C@H]2CCCCC(=O)*)N1

Biotin-ARAFGIPVRCYS [biotin-conjugated Cdk5i peptide]: the binding result is “binds”.

These data come from publication doi:10.1101/2020.05.12.090472 (bioRxiv, 2020).
